The text below walks through data of paper PMC9855357, “Different Forms of Disorder in NMDA-Sensitive Glutamate Receptor Cytoplasmic Domains Are Associated with Differences in Condensate Formation” (Biomolecules, 2022).

The target in this test is T1, Full-length PSD-95 (post synaptic density protein of 95 kDa) (Rattus norvegicus, UniProt P31016 1-724).
T1 construct: PSD-95, Rattus norvegicus, full length
Kind of test: co-sedimentation; ternary mixture 1:1:1 of PSD-95, CC-PBM and CTD2A or CTD2B, 20 µM each, 20 mM tris-HCl, 150 mM NaCl, pH 7.4, 25 °C for 5 min, 13,200 x g for 1 min; supernatant and pellet on SDS-PAGE, Coomassie. Conditions: both partners purified.

T1 sequence (P31016 whole entry): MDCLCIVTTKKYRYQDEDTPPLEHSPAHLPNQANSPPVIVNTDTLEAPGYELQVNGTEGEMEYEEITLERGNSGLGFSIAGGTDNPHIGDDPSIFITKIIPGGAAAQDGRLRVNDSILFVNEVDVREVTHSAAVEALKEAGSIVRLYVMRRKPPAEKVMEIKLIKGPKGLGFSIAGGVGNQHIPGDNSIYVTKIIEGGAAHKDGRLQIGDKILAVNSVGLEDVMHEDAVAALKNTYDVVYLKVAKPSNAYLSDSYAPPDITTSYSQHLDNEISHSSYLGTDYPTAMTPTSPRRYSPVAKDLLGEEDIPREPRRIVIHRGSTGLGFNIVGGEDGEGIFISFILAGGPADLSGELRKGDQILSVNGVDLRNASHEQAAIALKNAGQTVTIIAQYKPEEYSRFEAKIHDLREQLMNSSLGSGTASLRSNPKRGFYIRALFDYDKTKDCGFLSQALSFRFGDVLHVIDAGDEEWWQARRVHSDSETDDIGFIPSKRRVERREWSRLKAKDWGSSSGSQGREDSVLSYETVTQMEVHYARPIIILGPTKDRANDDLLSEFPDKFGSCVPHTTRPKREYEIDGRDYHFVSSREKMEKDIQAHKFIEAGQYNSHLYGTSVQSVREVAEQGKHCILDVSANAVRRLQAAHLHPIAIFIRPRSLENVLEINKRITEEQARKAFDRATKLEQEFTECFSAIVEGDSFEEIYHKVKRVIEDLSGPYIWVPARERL

B1: C-terminal domain 2 (CTD2) of GluN2B (residues 1259–1482) (domain or fragment, Rattus norvegicus, UniProt Q00960 1259-1482, looked up)
chain: SLQELDQPAAPVAVTSNASSTKYPQSPTNSKAQKKNRNKLRRQHSYDTFVDLQKEEAALAPRSVSLKDKGRFMDGSPYAHMFEMPAGESSFANKSSVPTAGHHHNNPGSGYMLSKSLYPDRVTQNPFIPTFGDDQCLLHGSKSYFFRQPTVAGASKTRPDFRALVTNKPVVVTLHGAVPGRFQKDICIGNQSNPCVPNNKNPRAFNGSSNGHVYEKLSSIESDV
notes: GluN2B subunit of the NMDA receptor, Rattus norvegicus, C-terminal domain 2, residues 1259-1482; Expressed from pPROEX HTB; the His tag was removed with TEV protease; also called CTD2B; GluN2B CTD2; not shown: His6, N-terminal, cleaved
Consider B1, for which the binding result is listed as “binds”.
